Paper PMC8644300

Legend:
[1] = biological target: recombinant KEA3 C-terminus (Arabidopsis thaliana); assay: SEC; Superdex 200 Increase 10/300 GL, calibrated with low and high molecular weight kits; Ni-NTA eluate treated with 2 mM EDTA to remove residual Ni2+ before the run
[2] = biological target: recombinant KEA3 C-terminus (Arabidopsis thaliana); assay: native gel or EMSA; native gel electrophoresis (without SDS) of the SEC fraction with the KEA3 C-terminus, in phosphate-buffered saline pH 8
[3] = biological target: K+ exchange antiporter 3 (KEA3), native KEA3.2 isoform (Arabidopsis thaliana (endogenous in Col-0)) (UniProt Q9M0Z3); assay: native gel or EMSA; Blue Native PAGE of thylakoid membranes solubilized with 0.7% β-DM, blotted and detected with the antibody against the KEA3 C-terminus; native protein marker for size

stoichiometry N [1]	stoichiometry N [2]	stoichiometry N [3]	Substance
2	2	–	recombinant KEA3 C-terminus (domain or fragment)
–	–	2	K+ exchange antiporter 3 (KEA3), native KEA3.2 isoform (from UniProt Q9M0Z3-1 73-776) (natural protein)
